Source: patent US20060110774A1

Molecular target: rabbit anti-GRK polyclonal antibody
Assay: competitive inhibition ELISA: pAb pre-incubated with pGRK, then added to immobilised rGRK

concentration giving complete inhibition of antibody binding: 10 ng/µL
Binder: NSQSYYNGDPFITKDC [synthetic peptide pGRK (…) derived from human Granzyme K]
